Measured values published in the supplement of paper PMC9170038.

What was measured:
[1] = test system: MS2 coat protein; assay: apparent KD of MS2 coat protein, switch ON state; designed switch direction (-1 OFF switch, 1 ON switch): 1; higher = weaker reporter binding; details: FMN input: 0 or 200 uM; Eterna round: R93 (includes R88 designs)
Procedure, shortened: (§1)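 Designed RNA switches were made by on-chip transcription from Illumina sequencing clusters and then titrated with SNAP-549-labelled MS2 coat protein. Twofold steps ran from 0.7 or 1.5 nM to 3 µM, each lasting 0.8–1.5 h early and 10–20 min late, in 100 mM Tris-HCl pH 7.5, 80 mM KCl, 4 mM MgCl2, without or with constant ligand. Apparent KD is the per-design median of normalised cluster binding-curve fits.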

[2] = test system: MS2 coat protein; assay: apparent KD of MS2 coat protein, switch OFF state (with FMN for OFF switches, without FMN for ON switches); designed switch direction (-1 OFF switch, 1 ON switch): 1; higher = weaker reporter binding; details: FMN input: 0 or 200 uM; Eterna round: R93 (includes R88 designs)
Procedure, shortened: as §1

Sequence: AAAAAACAUGAGGAUCACCCAUGUGAAAAUAUGGGAGGAUAUACAAAGACGAGAGUCAAAGUAGAAGGCCUAAAAA [Mat - Same State 1 - Eli mod - D87]
- apparent KD of MS2 coat protein [1]: 26.6 nM
- apparent KD of MS2 coat protein [2]: 139 nM

Sequence: AAAAAACAUGAGGAUCACCCAUGUGAGAACAUGGGAGGAUAUACAAGGAUGAGAGUCAAGGUAGAAGGCCUAAGAA [Garnet 70]
- apparent KD of MS2 coat protein [1]: 76.1 nM
- apparent KD of MS2 coat protein [2]: 48.5 nM

Sequence: AAAAAAUAAAAAAAGGAUAUACUGCUAGAAACAUGAGGAUCACCCAUGUAACUAGCAGUAAUAAAAAAGAAGGAAAAAUAAAAAA [SS2: MS2 35]
- apparent KD of MS2 coat protein [1]: 1.15 nM
- apparent KD of MS2 coat protein [2]: 3.61 nM

Sequence: AAAAAUAAAACACAGGAUAUCCAAAAGAAAACAUGAGGAUCACCCAUGUAAAGAAAAUAAAAAUGGGAGAAGGGUGAAAAUAAGA [Mat - Same State 2 - JL mod - D21]
- apparent KD of MS2 coat protein [1]: 29.9 nM
- apparent KD of MS2 coat protein [2]: 52.6 nM

Sequence: AAAACACAUGAGGAUCACCCAUGUAUCUGGACCAUAGGAUAUCCGCACCCACUAAGGCGUGGAGAAGGGUGAGCCC [Antisoorti]
- apparent KD of MS2 coat protein [1]: 160 nM
- apparent KD of MS2 coat protein [2]: 124 nM

Sequence: AAAACACAUGAGGAUCACCCAUGUGCAAAAUUCGCAGGAUAUUUCUCGAUUAAAUGAUAGGAAGAAGGGUGAUAAA [Nob's Hobby 35 - Jieux - Same State 1]
- apparent KD of MS2 coat protein [1]: 25.8 nM
- apparent KD of MS2 coat protein [2]: 33.7 nM

Sequence: AAAAGACAUGAGGAUCACCCAUGUAAAAACAUAGGAGGAUAUGUCGUGAAAAAAGACUUGGCAGAAGGCCUAUGUC [SS1 - 44]
- apparent KD of MS2 coat protein [1]: 19.7 nM
- apparent KD of MS2 coat protein [2]: 30.7 nM

Sequence: AAAAGACAUGAGGAUCACCCAUGUAAAAACUUGGGAGGAUAUGCUUGGAAAACAUGCUAUGCAGAAGGCUCUAGUC [SS1 - 14]
- apparent KD of MS2 coat protein [1]: 78.3 nM
- apparent KD of MS2 coat protein [2]: 123 nM

Sequence: AAAAGACAUGAGGAUCACCCAUGUCAAAAGACAUGAGGAUAUGUACAGACUUCGGUCUGUACAGAAGGCAUGAAAA [SS1 - 1066]
- apparent KD of MS2 coat protein [1]: 13.8 nM
- apparent KD of MS2 coat protein [2]: 23.6 nM

Sequence: AAAAGACAUGAGGAUCACCCAUGUUAAGACGUAGGAGGAUAUGUAUGGAAAACAUGCUGUACAGAAGGCCUGUGUC [SS1 - 26]
- apparent KD of MS2 coat protein [1]: 17.8 nM
- apparent KD of MS2 coat protein [2]: 20.8 nM

Sequence: AAAAGACAUGAGGAUCACCCAUGUUAAGACGUAGGAGGAUAUGUCGUGAAAAAAGACUUGACAGAAGGCCUGUGUC [SS1 - 38]
- apparent KD of MS2 coat protein [1]: 16 nM
- apparent KD of MS2 coat protein [2]: 20.4 nM

Sequence: AAAAUACAUGAGGAUCACCCAUGUCCGACAAAUCAAGGAUAUGAUAGCCAAACCAAGCUGUUAGAAGGUGAAAGAA [Edengere]
- apparent KD of MS2 coat protein [1]: 499 nM
- apparent KD of MS2 coat protein [2]: 208 nM

Sequence: AAAAUACAUGAGGAUCACCCAUGUGAAAAUAUGGGAGGAUAUACAAAAACGAAAGUAAAAGUAGAAGGCCUAAAAA [SS! 1 MT 1]
- apparent KD of MS2 coat protein [1]: 37.8 nM
- apparent KD of MS2 coat protein [2]: 185 nM

Sequence: AAACCACAUGAGGAUCACCCAUGUAAAAAUAUGGGAGGAUAUCGGAAUAAAAUAAAGAAACGAGAAGGCCUAAAAA [59%, Flamingo, 5]
- apparent KD of MS2 coat protein [1]: 33.7 nM
- apparent KD of MS2 coat protein [2]: 472 nM

Sequence: AAAGAAAAACUAGAGGAUAUCCGAGUGGUAACAUGAGGAUCACCCAUGUGAUGAAAGGAACAUGAGGAGAAGGCUAGAAGAAAAA [JL Nando mod 8]
- apparent KD of MS2 coat protein [1]: 14.4 nM
- apparent KD of MS2 coat protein [2]: 257 nM

Sequence: AAAGACAUGGUGCAGGAUAUAUUAAUAGUCACAUGAGGAUCACCCAUGUUCAGAUAUCUGAACGAGUAGAAGGGCGAUGAAAAAA [SameState2 Malc#5]
- apparent KD of MS2 coat protein [1]: 88.9 nM
- apparent KD of MS2 coat protein [2]: 61.9 nM

Sequence: AAAUAAAUGACUAAGGAUAUAUUAGAGAAAACAUGAGGAUCACCCAUGUAAUAAUAAAAAGGGUGAUAGAAGGUAGUCAACAAAC [74%, More Paria 4]
- apparent KD of MS2 coat protein [1]: 132 nM
- apparent KD of MS2 coat protein [2]: 48.8 nM

Sequence: AAAUAAAUGACUGAGGAUAUAUCGAAGAAGACAUGAGGAUCACCCAUGUGAUAAUAAAAAGGGUGGUAGAAGGUAGUCAACAAAC [Mod 8 of Pariah 4 by Hyphema in Round 1]
- apparent KD of MS2 coat protein [1]: 133 nM
- apparent KD of MS2 coat protein [2]: 122 nM

Sequence: AAAUAACAUGAGGAUCACCCAUGUUACAACAAUACAGGAUAUGUGGGUGAAAAUAGCAUGACAGAAGGGUAAUGUA [SameState1 Malc#32]
- apparent KD of MS2 coat protein [1]: 239 nM
- apparent KD of MS2 coat protein [2]: 79.8 nM

Sequence: AAAUAACAUGCGCAGGAUAUGAGACCGAUAACAUGAGGAUCACCCAUGUUAAGGAAGAAAUAAAAUCAGAAGGGUGGGUGGACCU [Aatteri]
- apparent KD of MS2 coat protein [1]: 25.7 nM
- apparent KD of MS2 coat protein [2]: 26.6 nM

Sequence: AAAUUACAUGAGGAUCACCCAUGUAGCGACGUGACAGGAUAUGUGGGUGAAAAUAGCAUGACAGAAGGGUCCCGUA [SameState1 Malc#40]
- apparent KD of MS2 coat protein [1]: 57.8 nM
- apparent KD of MS2 coat protein [2]: 23.1 nM

Sequence: AACAAUCUAUCUGAGGAUAUAUGUCAAAAGACAUGAGGAUCACCCAUGUAAAAACAUGAAAAAACAUAGAAGGCAGAUAGAUUGA [SS2: 1134]
- apparent KD of MS2 coat protein [1]: 41.5 nM
- apparent KD of MS2 coat protein [2]: 120 nM

Sequence: AACAAUCUAUCUGAGGAUAUAUGUCGAAAGACAUGAGGAUCACCCAUGUAAAAACAUGAAAAGACAUAGAAGGCAGAUAGAUUGA [SS2: 1132]
- apparent KD of MS2 coat protein [1]: 18.6 nM
- apparent KD of MS2 coat protein [2]: 36.1 nM

Sequence: AACAAUCUAUCUGAGGAUAUCAUGUAAAAGACAUGAGGAUCACCCAUGUUGCAGGAAACUGCUCAUGAGAAGGCAGAUAGAUUGA [SS2: 1125]
- apparent KD of MS2 coat protein [1]: 12.8 nM
- apparent KD of MS2 coat protein [2]: 13.8 nM

Sequence: AACAAUCUAUCUGAGGAUAUCAUGUCAAAGACAUGAGGAUCACCCAUGUACCAGGAAACUGGAUAUGAGAAGGCAGAUAGAUUGA [SS2: 1119]
- apparent KD of MS2 coat protein [1]: 16.1 nM
- apparent KD of MS2 coat protein [2]: 204 nM

Sequence: AACAAUCUAUCUGAGGAUAUCAUGUGAAAGACAUGAGGAUCACCCAUGUCGCAGGAAACUGCUCAUGAGAAGGCAGAUAGAUUGA [SS2: 1127]
- apparent KD of MS2 coat protein [1]: 15.6 nM
- apparent KD of MS2 coat protein [2]: 12.5 nM

Sequence: AACAUACAUGAGGAUCACCCAUGUUCCGGCAGGUCAGGAUAUUUAUCGAAUGAGUUCUAGAAAGAAGGGACAUAAA [JR_SS001_Sub008]
- apparent KD of MS2 coat protein [1]: 45.8 nM
- apparent KD of MS2 coat protein [2]: 62.7 nM

Sequence: AACUACAUUAUGAAGGAUAUCCACAUCAAGACAUGAGGAUCACCCAUGUAUACUUAGAUCAUACAGGAGAAGGUCAAGGGUGAAU [JR_SS002_Sub1207]
- apparent KD of MS2 coat protein [1]: 244 nM
- apparent KD of MS2 coat protein [2]: 89.2 nM

Sequence: AAGAAACAUGAGGAUCACCCAUGUAAUAAUAUGGGAGGAUAUACAAGGACAAUAGUCAAGGUAGAAGGCCUAAGAA [Mat - Same State 1 - Meechl mod - D142]
- apparent KD of MS2 coat protein [1]: 26.7 nM
- apparent KD of MS2 coat protein [2]: 249 nM

Sequence: AAGAAACAUGAGGAUCACCCAUGUGAGAAUAUGGGAGGAUAUACAAGGACGUAAGUCAAGGUAGAAGGCCUAAGAA [Mat - Same State 1 - Meechl mod - D139]
- apparent KD of MS2 coat protein [1]: 25.8 nM
- apparent KD of MS2 coat protein [2]: 200 nM
